Results published in US20240101642A1 (DUKE UNIVERSITY, published 2024).

Assays:
[1] = target: T1, wild-type (WT) β2AR reconstituted in high-density lipoprotein particles (HDL-β2AR), non-phosphorylated (human, UniProt P07550 1-413); experiment: cell-based or functional assay
[2] = target: β2AR ligated to a non-phosphorylated version of the V2R peptide, in HDL particles (β2ARnp) (human, UniProt P07550 1-365); experiment: cell-based or functional assay
[3] = target: T1, wild-type (WT) β2AR reconstituted in …; experiment: in situ read-outs: [125I]-CYP/isoproterenol competition binding with HDL-β2AR and bimane fluorescence
Method: Bimane-labeled β2AR or β2ARpp HDLs were incubated with or without isoproterenol for 15 min at room temperature before the addition of excess transducer. […] The reactions were equilibrated for at least 30 min in black, solid-bottom 96-well microplates before fluorescence emission spectra were collected on a CLARIOstar plate reader (BMG LABTECH) in top-read mode, with excitation at 370 nm (16 nm bandpass) and emission scanning from 400 nm to 600 nm (10 nm bandpass) in 1 nm increments. Reactions were set up in duplicate in each experiment, and wells for background subtraction contained all components except the bimane-labeled HDLs. Experiments were repeated at least three times.
Radioligand Binding: All equilibrium competition radioligand binding studies were conducted in a final volume of 200 μL containing HDL-receptor, radioligand, a titration of unlabeled competitor, and the presence or absence of the indicated transducer protein. All components were diluted in assay buffer containing 20 mM HEPES, pH 7.4, 100 mM NaCl, and 1 mg/mL bovine serum albumin (BSA). […] Binding reactions proceeded at room temperature and were harvested onto glass-fiber filters (GFB) with 0.3% polyethyleneimine (PEI) using a 96-well Brandel harvester. Binding data were analyzed in GraphPad Prism using a sigmoidal dose-response curve fit, and differences in log IC50 values were analyzed by one-way ANOVA.

B1: β-arrestin1, minimal cysteine and truncated variant of rat βarr1 (βarr1-MC-393) (other, UniProt P29066 1-393, looked up)
chain: MGDKGTRVFKKASPNGKLTVYLGKRDFVDHIDLVDPVDGVVLVDPEYLKERRVYVTLTAAFRYGREDLDVLGLTFRKDLFVANVQSFPPAPEDKKPLTRLQERLIKKLGEHAYPFTFEIPPNLPSSVTLQPGPEDTGKAIGVDYEVKAFVAENLEEKIHKRNSVRLVIRKVQYAPERPGPQPTAETTRQFLMSDKPLHLEASLDKEIYYHGEPISVNVHVTNNTNKTVKKIKISVRQYADIVLFNTAQYKVPVAMEEADDTVAPSSTFSKVYTLTPFLANNREKRGLALDGKLKHEDTNLASSTLLREGANREILGIIVSYKVKVKLVVSRGGLLGDLASSDVAVELPFTLMHPKPKEEPPHREVPESETPVDTNLIELDTNDDDIVFEDFAR
notes: range 1-393; Expressed as GST fusion in BL21(DE3) and removed from GST by thrombin; also called βarr1-393 minimal cysteine
Question: What does the source list for B1?
Answer: log IC50 of isoproterenol (ISO), [125I]-CYP competition binding, in the presence of βarr1 (no transducer: -6.82+/-0.03) [1]: -6.81 log; log IC50 of isoproterenol (ISO), [125I]-CYP competition binding, in the presence of βarr1 (no transducer: -6.42+/-0.09) [2]: -6.49 log; binding result [3]: no binding (tested: micromolar concentrations)
